The values that follow come from patent US20020137918A1.

Residue numbers refer to the chain shown, from its start. In names and notes the source's numbering stands.

The target in test [1] is human κ-chain (human). Description: affinity chromatography, Y53F PpL coupled to agarose, human κ-chain eluted by rising KCl.
Test [2] addresses human κ-chain (human). Briefly: affinity chromatography, Y53F PpL coupled to agarose, human κ-chain eluted by falling pH.
The target of test [3] is human κ-chain (human). Description: affinity chromatography, Y53F PpL coupled to agarose, human κ-chain eluted by rising pH.
For test [4], the target named is human IgG (human). Briefly: competitive ELISA at pH 8.0, against the Kd of PpL (112 nM).
The target of test [5] is human κ-chain (human). Briefly: method not given.
The target in test [6] is human IgG (human). Briefly: method not given.
For test [7], the target named is human IgG (human). Briefly: competitive ELISA at pH 8.0, PpL on the plate. For orientation: In an ELISA, binding on a coated surface is turned into a signal by an enzyme label.
Test [8] deals with human κ-chain (human). Briefly: Kd at pH 8, method not stated; one Kd given for the mutation, ticked in PpL and Y64W PpL.
For test [9], the target named is human κ-chain (human). Description: affinity chromatography, Y64W PpL coupled to agarose, human κ-chain eluted by rising pH.
In test [10] the target is human κ-chain (human). Briefly: affinity chromatography, Y64W PpL coupled to agarose, human κ-chain eluted by falling pH.
Test [11] has as its target human κ-chain (human). Description: affinity chromatography, Y64W PpL coupled to agarose, human κ-chain eluted by rising KCl.
The target of test [12] is human IgG (human). Briefly: competitive ELISA, PpL on the plate, human IgG.
The target in test [13] is human κ-chain (human). Briefly: tryptophan fluorescence, complex against the sum of the spectra of the single proteins.
Test [14] addresses human IgG (human). Briefly: competitive ELISA, Wt PpL immobilized, human IgG.
The target of test [15] is human κ-chain (human). Description: isothermal titration calorimetry, 800 µM L57H PpL into 40 µM kappa light chain, 25 °C, pH 8.0. For orientation: In ITC the heat of successive injections is recorded.
The target in test [16] is human κ-chain (human). Briefly: tryptophan fluorescence, complex against the sum of the single proteins.
Test [17] concerns the target human κ-chain (human). Briefly: Kd at pH 8, method not stated; mutation ticked in Y64W PpL.
Test [18] addresses human κ-chain (human). Description: stopped flow fluorescence, equilibrium Kd.
Test [19] deals with human κ-chain (human). Description: stopped flow fluorescence, encounter complex.
Test [20] deals with human κ-chain (human). Description: stopped flow fluorescence.
The target in test [21] is human κ-chain (human). Briefly: Kd at pH 8, method not stated; mutation ticked in PpL.
Test [22] concerns the target human κ-chain (human). Briefly: competitive fluorescence titration, PpL2Asn as competitor.
In test [23] the target is human κ-chain (human). Briefly: fluorescence titration of F39W into 0.75 µM kappa chain, 18 °C, pH 8.
In test [24] the target is human κ-chain (human). Description: Kd at pH 8, method not stated; mutation ticked in F39W PpL.
The target of test [25] is human κ-chain (human). Briefly: Kd at pH 8, method not stated; one Kd given for the mutation, ticked in Y64W PpL and F39W PpL.
Test [26] has as its target human κ-chain (human). Description: affinity chromatography, PpL coupled to agarose, human κ-chain eluted by rising KCl.
In test [27] the target is human IgG (human). Description: competitive ELISA; told as 'previously determined for PpL'.
Test [28] has as its target human IgG (human). Description: competitive ELISA, human IgG.
The target of test [29] is human κ-chain (human). Briefly: affinity chromatography, PpL coupled to agarose, human κ-chain eluted by falling pH.
In test [30] the target is human κ-chain (human). Briefly: affinity chromatography, PpL coupled to agarose, human κ-chain eluted by rising pH.

In general, Kd refers to the concentration at which binding is half-saturated. Lower therefore signals tighter binding. Take Y53F PpL: the elution condition, increase KCl in test [1] turned out to be 0.75 M. For the same molecule, in test [2], the elution condition, decreased pH is 3.2 pH. In test [3], this molecule had an elution condition, increased pH of 9.6 pH. Also, the fold increase in Kd against PpL in [4] is 25 fold. Further, in test [5], the fold reduction in affinity against PpL was determined as 27 fold. Also, the figures for the Kd in test [6], in test [7] and in test [8] were 2000 nM, 3200 nM and 1700 nM, respectively.

B1: Y64W PpL (protein)
chain: MNIKFAGKETPETPEEPKEEVTIKVNLIFADGKIQTAEFKGTFEEATAEAYRYADLLAKVNGEWTADLEDGGNHMNIKFAGK
In test [9], B1 had an elution condition, increased pH of 10.1 pH. The same molecule displayed an elution condition, decreased pH in test [10] of 2.03 pH. This molecule also came in with an elution condition, increase KCl in test [11] of 0.96 M. Moreover, the Kd in test [12] came to 129 nM. Further, the quench in fluorescence emission of the complex in [13] stood at 9%.

B2: L57H PpL (protein)
chain: B1 chain with L57H, W64Y
Consider B2, for which the Kd was found to be 4200 nM in test [14], 5200 nM in [15] and 6000 nM in test [8].

B3: Y53F Y64W PpL (protein)
chain: B1 chain with Y53F
In [16], B3 registered an increase in fluorescence signal of the complex of 10%. Besides, the Kd in [7] amounted to 3320 nM; in [8], 1700 nM.

B4: L57D Y64W PpL (protein)
chain: B1 chain with L57D
Consider B4, for which, in [17], the Kd was 2000 nM.

B5: L57H Y64W PpL (protein)
chain: B1 chain with L57H
Molecule B5 displayed a Kd in test [18] of 5400 nM. This molecule came in with a pre-equilibrium Kd in [19] of 6800 nM. Also, in test [20], the fold of equilibrium Kd against Y64W PpL was found to be 30 fold and the fold of pre-equilibrium Kd against Y64W PpL is 2 fold. This molecule also registered a Kd in test [8] of 6000 nM.

B6: F39W PpL (protein)
chain: B1 chain with F39W, W64Y
B6: the Kd is 160 nM in test [21] and 161 nM in test [23]. In addition, the Kdapp in the presence of 5 µM PpL2Asn in test [22] stood at 310 nM.

B7: Y53H F39W PpL (protein)
chain: B1 chain with F39W, Y53H, W64Y
On to B7, for which the Kd in [24] worked out at 500 nM.

B8: Q35E F39W PpL (protein)
chain: B1 chain with Q35E, F39W, W64Y
In [25], B8 came in with a Kd of 300 nM.

B9: Q35E Y64W PpL (protein)
chain: B1 chain with Q35E
As to B9, the Kd in [25] turned out to be 300 nM.

B10: F39H PpL (protein)
chain: B1 chain with F39H, W64Y
In turn, B10 returned a Kd in test [8] of 1000 nM.

B11: F39H Y64W PpL (protein)
chain: B1 chain with F39H
Regarding B11, the Kd in test [8] is 1000 nM.

B12: N76D F39W PpL (protein)
chain: B1 chain with F39W, W64Y, N76D
The molecule B12 came in with an equilibrium dissociation constant (Kd) in test [24] of 400 nM.

B13: PpL (protein)
chain: B1 chain with W64Y
In test [26], B13 showed an elution condition, increase KCl of 0.95 M. Further, the Kd in test [27] was 112 nM; in test [28], 160 nM. This molecule also showed an elution condition, decreased pH in test [29] of 1.96 pH. The elution condition, increased pH in test [30] was 10.2 pH.
